Results from patent US20160038588A1, “Myostatin Antagonism in Human Subjects” (AMGEN INC., priority 2013, published 2016).
Where no end group is shown, it is not given here.

How the values were obtained:
myostatin [1] = target: T1, myostatin (Homo sapiens, UniProt O14793); assay: C2C12 pMARE-luc cell based myostatin activity assay
T1 construct: To produce mature myostatin, the pooled promyostatin was enzymatically cleaved between the propeptide and mature myostatin C terminal; made in house
T1 sequence (O14793 267-375): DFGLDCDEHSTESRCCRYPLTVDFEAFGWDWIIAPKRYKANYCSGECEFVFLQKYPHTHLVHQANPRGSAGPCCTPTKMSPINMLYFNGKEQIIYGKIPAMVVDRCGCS
From the text: The antagonists including the binding agents described herein can be tested for their ability to bind myostatin and inhibit or block myostatin activity. Any number of assays or animal tests may be used to determine the ability of the agent to inhibit or block myostatin activity. Several assays used for characterizing the peptides and peptibodies of the present invention are described in the Examples below. One assay is the C2C12 pMARE-luc assay which makes use of a myostatin-responsive cell line (C2C12 myoblasts) transfected with a luciferase reporter vector containing myostatin/activin response elements (MARE). Exemplary peptibodies are assayed by pre-incubating a series of peptibody dilutions with myostatin, and then exposing the cells to the incubation mixture. The resulting luciferase activity is determined, and a titration curve is generated from the series of peptibody dilutions. The IC50 (the concentration of peptibody to achieve 50% inhibition of myostatin activity as measured by luciferase activity) was then determined. A second assay described below is a BIAcore® assay to determine the kinetic parameters ka (association rate constant), kd (dissociation rate constant), and KD (dissociation equilibrium constant) for the myostatin binding agents and other antagonists such as antibodies capable of binding myostatin and its receptor. Lower dissociation equilibrium constants (KD, expressed in nM) indicated a greater affinity of the peptibody for myostatin. […] These assays are described in Example 3.
C2C12 Cell Based Myostatin Activity Assay
A myostatin-responsive reporter cell line was generated by transfection of C2C12 myoblast cells (ATCC No: CRL-1772) with a pMARE-luc construct. The pMARE-luc construct was made by cloning twelve repeats of the CAGA sequence, representing the myostatin/activin response elements (Dennler et al. EMBO 17: 3091-3100 (1998)) into a pLuc-MCS reporter vector (Stratagene cat #219087) upstream of the TATA box. The myoblast C2C12 cells naturally express myostatin/activin receptors on its cell surface. When myostatin binds the cell receptors, the Smad pathway is activated, and phosphorylated Smad binds to the response element (Macias-Silva et al. Cell 87:1215 (1996)), resulting in the expression of the luciferase gene. Luciferase activity is then measured using a commercial luciferase reporter assay kit (cat # E4550, Promega, Madison, Wis.) according to manufacturer's protocol. A stable line of C2C12 cells that had been transfected with pMARE-luc (C2C12/pMARE clone #44) was used to measure myostatin activity according to the following procedure.
Equal numbers of the reporter cells (C2C12/pMARE clone #44) were plated into 96 well cultures. A first round screening using two dilutions of peptibodies was performed with the myostatin concentration fixed at 4 nM. Recombinant mature myostatin was preincubated for 2 hours at room temperature with peptibodies at 40 nM and 400 nM respectively. The reporter cell culture was treated with the myostatin with or without peptibodies for six hours. Myostatin activity was measured by determining the luciferase activity in the treated cultures. This assay was used to initially identify peptibody hits that inhibited the myostatin signaling activity in the reporter assay. Subsequently, a nine point titration curve was generated with the myostatin concentration fixed at 4 nM. The myostatin was preincubated with each of the following nine concentrations of peptibodies: […], 0.4 nM, 4 nM, 20 nM, 40 nM, 200 nM, 400 nM, 2 uM and 4 uM for two hours before adding the mixture to the reporter cell culture. The IC50 values were for a number of exemplary peptibodies are provided in Tables III and for affinity matured peptibodies, in Table VIII.

myostatin [2] = target: T1, myostatin; assay: Epitope binning for peptibodies (BIAcore); assay type: binding
Protocol: Epitope Binning for Peptibodies
A purified peptibody was immobilized on a BIAcore chip to capture myostatin before injection of a second peptibody, and the amount of secondary peptibody bound to the captured myostatin was determined Only peptibodies with distinct epitopes will bind to the captured myostatin, thus enabling the binning of peptibodies with similar or distinct epitope binding properties.

myostatin [3] = target: T1, myostatin; assay: BIAcore affinity analysis on immobilized myostatin; assay type: binding; conditions: Biacore assay
From the text: The antagonists including the binding agents described herein can be tested for their ability to bind myostatin and inhibit or block myostatin activity. Any number of assays or animal tests may be used to determine the ability of the agent to inhibit or block myostatin activity. Several assays used for characterizing the peptides and peptibodies of the present invention are described in the Examples below. One assay is the C2C12 pMARE-luc assay which makes use of a myostatin-responsive cell line (C2C12 myoblasts) transfected with a luciferase reporter vector containing myostatin/activin response elements (MARE). Exemplary peptibodies are assayed by pre-incubating a series of peptibody dilutions with myostatin, and then exposing the cells to the incubation mixture. The resulting luciferase activity is determined, and a titration curve is generated from the series of peptibody dilutions. The IC50 (the concentration of peptibody to achieve 50% inhibition of myostatin activity as measured by luciferase activity) was then determined. […]
Direct binding assays were used to screen and rank the peptibodies in order of their ability to bind to immobilized myostatin. […] Peptibody binding kinetic parameters including ka (association rate constant), kd (dissociation rate constant) and KD (dissociation equilibrium constant) were determined using the BIA evaluation 3.1 computer program (Biacore, Inc.). […]

[4] = target: T2, myostatin binding to ActRIIB/Fc (Homo sapiens, UniProt O14793); assay: Blocking assay on ActRIIB/Fc surface (BIAcore)
T2 construct: To produce mature myostatin, the pooled promyostatin was enzymatically cleaved between the propeptide and mature myostatin C terminal; host or cells: myostatin: E. coli K-12 strain 2596; ActRIIB/Fc purchased
T2 sequence (O14793 267-375): T1 sequence (O14793 267-375)
Protocol: Blocking Assay on ActRIIB/Fc Surface
Blocking assays were carried out using immobilized ActRIIB/Fc (R&D Systems, Minneapolis, Minn.) and myostatin in the presence and absence of peptibodies with the BIAcore® assay system. […] Baseline myostatin-ActRIIB/Fc binding was first determined in the absence of any peptibody.
For early screening studies, peptibodies were diluted to 4 nM, 40 nM, and 400 nM in sample buffer and incubated with 4 nM myostatin (also diluted in sample buffer). The peptibody:ligand mixtures were allowed to reach equilibrium at room temperature (at least 5 hours) and then were injected over the immobilized ActRIIB/Fc surface for 20 to 30 minutes at a flow rate of 10 μl/min. […] Selected peptibodies were further characterized using the blocking assay of a full concentration series in order to derive IC50 values (for neutralizing peptibodies) or EC50 (for non-neutralizing peptibodies). The peptibody samples were serially diluted from 200 nM to […] in sample buffer and incubated with […] myostatin at room temperature to reach equilibrium (minimum of five hours) before injected over the immobilized ActRIIB/Fc surface for 20 to 30 minutes at a flow rate of 10 μl/min. Following the sample injection, bound ligand was allowed to dissociate from the receptor for 3 minutes.

TN8-19: peptibody; peptide QGHCTRWPWMCPPY (cysteine pairing not given here; also: Fc fusion peptibody)
inhibition of myostatin activity in cell-based assay (myostatin [1]): inhibit myostatin activity | IC50 of peptibody compared with peptide (FIG. 1) (myostatin [1]; C2C12 based assay): significantly less than that of the peptide | IC50 (myostatin [1]; pMARE luc cell-based assay, myostatin 4 nM): ~23 nM | epitope on myostatin (binning) (myostatin [2]): bind to different epitopes | Kd (myostatin [3]): ~2 nM | blocking of myostatin/ActRIIB/Fc interactions [4]: does not block
